Laboratory results from publication PMC5587726.

Key:
Experiment in all cases: X-ray crystallography; UMPNPP, Mg2+; Crystals: DNA mixed with ~10 mg/mL protein (4:1 molar) on ice 1 h; cryoprotectant/soak 100 mM HEPES pH 7.5, 20% PEG 4000, 10 mM MgCl2, 50 mM NaCl, 5% glycerol
[1] = molecular target: hPol μΔ2 W434A (human, UniProt Q9NP87 132-397+=G+411-494, W434A;internal_change)
[2] = molecular target: hPol μΔ2 wildtype (DNA polymerase mu catalytic domain, Loop2 deleted) (human, UniProt Q9NP87 132-397+=G+411-494, internal_change)
[3] = molecular target: hPol μΔ2 G433A (human, UniProt Q9NP87 132-397+=G+411-494, G433A;internal_change)

Measured: binding result

hPol μΔ2 W434A, sequence (Q9NP87 other isoform, or with tags, fused parts or gaps W434A/| W434A W434A): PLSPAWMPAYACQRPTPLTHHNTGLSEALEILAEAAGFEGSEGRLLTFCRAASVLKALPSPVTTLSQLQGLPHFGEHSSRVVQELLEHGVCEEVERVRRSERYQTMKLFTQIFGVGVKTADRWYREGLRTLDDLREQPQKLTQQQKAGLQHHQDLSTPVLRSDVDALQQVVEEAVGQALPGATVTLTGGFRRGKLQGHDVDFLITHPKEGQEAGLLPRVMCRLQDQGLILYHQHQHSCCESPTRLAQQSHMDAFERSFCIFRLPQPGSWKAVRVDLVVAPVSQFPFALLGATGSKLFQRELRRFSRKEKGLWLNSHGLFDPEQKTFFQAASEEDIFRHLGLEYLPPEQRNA
hPol μΔ2 wildtype (DNA polymerase mu catalytic domain, Loop2 deleted), sequence (Q9NP87 other isoform, or with tags, fused parts or gaps | mutant): as the sequence (Q9NP87 other isoform, or with tags, fused parts or gaps W434A/| W434A W434A) above, with A291W counted along it
hPol μΔ2 G433A, sequence (Q9NP87 other isoform, or with tags, fused parts or gaps G433A/| G433A G433A): as the sequence (Q9NP87 other isoform, or with tags, fused parts or gaps W434A/| W434A W434A) above, with G290A, A291W counted along it

B1: 1-nt gapped DNA (pre-catalytic) (dsDNA)
DNA 1: CGGCATACG
DNA 2: CGTA
DNA 3: GCCG
modifications: 5'-phosphate on downstream primer GCCG
binds: all assays above
